{"source": "the DeepSol protein solubility set", "data": [{"assay": "soluble on expression in E. coli; label from the status in PepcDB or PDB records", "values": [{"sequence": "MATATPVPPRMGSRAGGPTTPLSPTRLSRLQEKEELRELNDRLAVYIDKVRSLETENSALQLQVTEREEVRGRELTGLKALYETELADARRALDDTARERAKLQIELGKCKAEHDQLLLNYAKKESDLNGAQIKLREYEAALNSKDAALATALGDKKSLEGDLEDLKDQIAQLEASLAAAKKQLADETLLKVDLENRCQSLTEDLEFRKSMYEEEINETRRKHETRLVEVDSGRQIEYEYKLAQALHEMREQHDAQVRLYKEELEQTYHAKLENARLSSEMNTSTVNSAREELMESRMRIESLSSQLSNLQKESRACLERIQELEDLLAKEKDNSRRMLTDKEREMAEIRDQMQQQLNDYEQLLDVKLALDMEISAYRKLLQGEEERLKLSPSPSSRVTVSRASSSRSVRTTRGKRKRVDVEESEASSSVSISHSASATGNVCIEEIDVDGKFIRLKNTSEQDQPMGGWEMIRKIGDTSVSYKYTSRYVLKAGQTVTIWAANAGVTASPPTDLIWKNQNSWGTGEDVKVILKNSQGEEVAQRSTVFKTTIPEEEEEEEEAAGVVVEEELFHQQGTPRASNRSCAIM", "soluble on expression in E. coli": "soluble"}, {"sequence": "MATDTTVQLRAGWQGRFYEDFAVGDVYKHPYGRTVTETDNVWFTNLTMNANPMHFNAAYASGTEFDERLVNGLFVIALSVGMSVVDVSANATANLGYDDIQHHAPVFHGDTLFAESEVLSKRESESRPHVGMVTTELRTYTQDGELVLSLERTPMVRKRGAADPLEHHHHHH", "soluble on expression in E. coli": "not soluble"}, {"sequence": "MATKVYIVYYSMYGHVEKLAQEIRKGAASVDGVEAILWQVPETLQEDVLSKMSAPPKSDAPIITPNELAEADGFIFGFPTRFGMMAAQFKAFLDATGGLWRTQQLAGKPAGIFYSTGSQGGGQETTALTAITQLVHHGMIFVPIGYTFGAGMFEMENVKGGSPYGAGTFAGDGSRQPTELELGQAFHQGKYIAAISKKLKGPAAA", "soluble on expression in E. coli": "soluble"}, {"sequence": "MATLDKFLSIKENDEKTKKKESKKKSSKSNKTSESLVSHDHFELTPEFENQLWKVADKLRKKMEVHQYKYVVLGLIFLRALTCRFYERRKEIEEELSNPNSELYTEDPELRKMILEDEDFYLSEGVLYLPKETRWDYFVENVMSPNIGEIIDTAIEILEEKYPDRLKDVIPKIYAQSPLDNHDYSYLINKFSEISFGKEHRVKDVFGRIYEYFLGKFTEVEGKLGGKFYTPRSLTKLIVDVLDVKGGSIFDPACGSGGFFVSALEKLEREGIDINELSIYGQDSDPMAYRLTKMNLIIRGAEGDIRIDDSYHDDKFMDMTFDYVVANPPFNDSEWDANRIKPDDPRLRIGNKKVPVPPNGNANYMWILHFIYHTAPNGKAGFVMANGALSAGNVEGEIRKAIIENDLVYGIVACPPKLFYNVSLPVSLWFIRKEKPDYMKGKVLFINAKNLYKQISRRQNILTEEHIKKIVDKFRMFESGEDEDKINELGFAKVATIDEIAKNGYVLTPGRYVGVKIEDDGIPFEVKMKEYSEELKKLLDEEEKLRNKVKEILDALGF", "soluble on expression in E. coli": "soluble"}, {"sequence": "MATNAKPVYKRILLKLSGEALQGTEGFGIDASILDRMAQEIKELVELGIQVGVVIGGGNLFRGAGLAKAGMNRVVGDHMGMLATVMNGLAMRDALHRAYVNARLMSAIPLNGVCDNYSWAEAISLLRNNRVVILSAGTGNPFFTTDSAACLRGIEIEADVVLKATKVDGVFTADPAKDPSATMYDQLTYSEVLDKELKVMDLAAFTLARDHKLPIRVFNMNKPGALRRVVMGEKEGTLITELEHHHHHH", "soluble on expression in E. coli": "not soluble"}, {"sequence": "MATPDLTIRGGGIFGLAVAWAAVRRGAKVRLIESARIGAGSSGGVVGALSPHVPEQWNEKKAFQFESLAMGEAWWAAVADASGLPTGYDRLGRFQPLADARAVDHARARAEEARTLWQGRFSWEVVPAGGDFMPESPTGLVIHDTLTARLNPRLAVPALVQAIRAQGGEILIGEGEEAGPVVWATGVAGLEALSQDLGKPVGNGVKGQAMVVALDARDRPQVFGPGLLIVPHADGTTAVGSTAEKDWTAPDTTDAQLDEVHARAVALCPWLEGAPVLTRWAGLRPRARSLAPMLGEWPGRPGQYVANGGFKIGFGMAPKVGEVMAALVLEGRDEIPESFRVEASLKKKGKAEELEHHHHHH", "soluble on expression in E. coli": "not soluble"}, {"sequence": "MATSGTYVTEVPLKGSAKNHYKRWKSENQLFPDAIGHHIQGVTVHEGDWDSHGAIKSWNYTCDGKQEVFKEKRELDDQKMAVTFRGLDGHVMEQLKVYDVIFQFVPKSQEGCVCKVTMFWEKRYEDSPEPIKYMKFVTSLAADMDDHILKNQSKA", "soluble on expression in E. coli": "soluble"}, {"sequence": "MATSKILLYYAFTPLSDPKAVQLWQRELCESLNLRGRILISTHGINGTVGGDIDDCKAYIKKTREYPGFNRMQFKWSEGGAEDFPKLSVKVRDEIVAFGAPDELKVDENGVVGGGVHLKPQQVNELVEARGDEVVFFDGRNAMEAQIGKFKDAVVPDVETTHDFIAEIESGKYDDLKDKPVVTYCTGGIRCEILSSLMINRGFKEVYQIDGGIVRYGEQFGNKGLWEGSLYVFDKRMHMEFGEDYKEVGHCIHCDTPTNKFEHCLNEDDCRELVLMCPDCFANVETRHCKRERCAAIAADFAEQGIDPLVTSLEHHHHHH", "soluble on expression in E. coli": "soluble"}, {"sequence": "MATVNKQAIAAAFGRAAAHYEQHADLQRQSADALLAMLPQRKYTHVLDAGCGPGWMSRHWRERHAQVTALDLSPPMLVQARQKDAADHYLAGDIESLPLATATFDLAWSNLAVQWCGNLSTALRELYRVVRPKGVVAFTTLVQGSLPELHQAWQAVDERPHANRFLPPDEIEQSLNGVHYQHHIQPITLWFDDALSAMRSLKGIGATHLHEGRDPRILTRSQLQRLQLAWPQQQGRYPLTYHLFLGVIARE", "soluble on expression in E. coli": "not soluble"}, {"sequence": "MAVAMDNAILENILRQVRPLIGQGKVADYIPALATVDGSRLGIAICTVDGQLFQAGDAQERFSIQSISKVLSLVVAMRHYSEEEIWQRVGKDPSGSPFNSLVQLEMEQGIPRNPFINAGALVVCDMLQGRLSAPRQRMLEVVRGLSGVSDISYDTVVARSEFEHSARNAAIAWLMKSFGNFHHDVTTVLQNYFHYCALKMSCVELARTFVFLANQGKAIHIDEPVVTPMQARQINALMATSGMYQNAGEFAWRVGLPAKSGVGGGIVAIVPHEMAIAVWSPELDDAGNSLAGIAVLEQLTKQLGRSVY", "soluble on expression in E. coli": "soluble"}, {"sequence": "MAVDMFIKIGDVKGESKDKTHAEEIDVLAWSWGMSQSGSMHMGGGGGAGKVNVQDLSFTKYIDKSTPNLMMACSSGKHYPQAKLTIRKAGGENQVEYLIITLKEVLVSSVSTGGSGGEDRLTENVTLNFAQVQVDYQPQKADGAKDGGPVKYGWNIRQNVQA", "soluble on expression in E. coli": "soluble"}, {"sequence": "MAVGEVMRMEIPAGGDLTVTTPELHVLAVDDSIVDRKVIERLLRISSCKVTTVESGTRALQYLGLDGGKGASNLKDLKVNLIVTDYSMPGLSGYDLLKKIKESSAFREVPVVIMSSENILPRIQECLKEGAEEFLLKPVKLADVKRIKQLIMRNEAEECKILSHSNKRKLQEDSDTSSSSHDDTSIKDSSCSKRMKSESENLFSLL", "soluble on expression in E. coli": "not soluble"}, {"sequence": "MAVLYLVGTPIGNLADITYRAVDVLKRVDMIACEDTRVTSKLCNHYDIPTPLKSYHEHNKDKQTAFIIEQLELGLDVALVSDAGLPLISDPGYELVVAAREANIKVETVPGPNAGLTALMASGLPSYVYTFLGFLPRKEKEKSAVLEQRMHENSTLIIYESPHRVTDTLKTIAKIDATRQVSLGRELTKKFEQIVTDDVTQLQALIQQGDVPLKGEFVILIEGAKANNEISWFDDLSINEHVDHYIQTSQMKPKQAIKKVAEERQLKTNEVYNIYHQIS", "soluble on expression in E. coli": "not soluble"}, {"sequence": "MAVPPTYADLGKSARDVFNKGYGFGLVKLEVKTKSSSGVEFTSSGSSNTDTGKASGNLETKYKMKETGLTFTQKWNTDNTLGTEVALEDKLAKGLKLSLDTTFVPNTGKKSAKLKTSYKRDYANLGIDIDLDLAGPTIYGWGVLGYQGWLAGYQMAFDTAKSRLAQNNFALGYTAGDFQLHTNVNDGTEFGGSVYQKVSKDVETSVSLAWSAGSNNTRFGIGAKYQLDSNTTISAKVNNASLIGVGYTQTLRPGVKLTLSALVNGKNFSAGGHKVGLGFELEA", "soluble on expression in E. coli": "not soluble"}, {"sequence": "MAVRVCCHAPPGVSNHLFTFCAGNLTTGFSGGSVTSQKGGAAGLPTCSRRCPRGCLPGSDPLPRHPRRYAPPVTPPVTPPTTPAPRSRARMLELVFPKDTNYHGTAFGGWVLALMDKAASVAAVRHAGGNVVTARMDGVDFHVPIRVGDAVALDARVIRVGRSSMTIRVDVYRENMASGEQQLATGGLFTFVALGEDGKPRPVPPLPEGSTDSEQPDYEARPLEHHHHHH", "soluble on expression in E. coli": "not soluble"}, {"sequence": "MAVSEIKATMKLKPLKAPVFHKRDKDLRGSFSDHLKHKESKLSPAQLEAFRNAYNFFTKDRTGCIDSHGLISTIAKLGMNLNTYDIYNELKCADLDRDGKINFSDFINVLTDKKLFLKAVVPEKKICLDLANNPGILLFEILSKFVETSSLHRKDIIELVSYFRKRFQESHSEIMWSSYGRRGLKSEICSPPRSSTAAFANSARISIMKERDLYKFLEALKRCNLRTDSPYSKIPVFPLFPDVDGTVMGKPFKDTQKIEMLRRKEPLTFFEDYFFNKRDWKTQAMNVKPLKSASGYSDDILAIDHLFKKKQHWTVTDAAAIKQHVKKATESYNLGIALDHRKEMLNLWKKIRGDLVGIESNNESFYNTFSTYTWSWNVCQELLSAKDLRLHDASMNKSSPSNSGLSSPSDFSESDPETGRKRKRKSSRGFRQ", "soluble on expression in E. coli": "not soluble"}, {"sequence": "MAVYANTSVQDFYEFWLEEVKKKSLSYNSYYSFKKTVQNYILPLYGRLSMGKLRKNHVKRIYKKTYETSPSVAKIVKTVLTTSFKYALRYGYVEEDYVTGLKWNRVILEHHHHHH", "soluble on expression in E. coli": "not soluble"}, {"sequence": "MAVYLDFENHIKEIQNEIELALIRGDEDAKEILEKRLDKEVKSIYSNLTDFQKLQLARHPDRPYAMDYIDLILKDKYEVFGDRHYNDDKAIVCFVGKIDNVPVVVIGEEKGRGTKNKLLRNFGMPNPCGYR", "soluble on expression in E. coli": "not soluble"}, {"sequence": "MAWALPAQAEQLIYGFQAEQLEYRQGDSEDSFVWDFDALIGTDELKLVWRSEGERVQGAGGFETLENQLRLQFPVSTFFDAVVGVQASTPDGLPDRYNAVLGLKGLAPQWFEIDADLYLSDNSFFRFEGEYEAMLTNRLTLTPSLELTLPLQDDPIYNQAAGGVTLEAGLRLSYDLIDRAVSPYIGVNYERSYGGTADMIRAAGDENGAFSVVFGTRLMFLEHHHHHH", "soluble on expression in E. coli": "not soluble"}, {"sequence": "MAWMEVRGKRFEILVRPELAFRYKEKGDVDLEDVLWTDTIYRDVRKGLKASPEEVKKAFGTSDPRRVAEKILKEGEIQLTEEQRRRLLEAKRRQIISYIARNAIDPTTGRPIPEARIEAALEEVRFPINLWRDAESQAVEAVRLIARVMPIRLARALLEVKIPPPHSGRAYQALMRMGEVKKADWLPDGSLKAELEIPAGAQVEVTSRIQALARGAAEVKVKKVAAAAAAALEHHHHHH", "soluble on expression in E. coli": "soluble"}, {"sequence": "MAYELPELPYAYDALEPHIDKETMTIHHTKHHNTYVTNLNKAVEGNTALANKSVEELVADLDSVPENIRTAVRNNGGGHANHKLFWTLLSPNGGGEPTGALAEEINSVFGSFDKFKEQFAAAAAGRFGSGWAWLVVNNGKLEITSTPNQDSPLSEGKTPILGLDVWEHAYYLNYQNRRPDYISAFWNVVNWDEVARLYSERK", "soluble on expression in E. coli": "soluble"}, {"sequence": "MAYTLATHTAGVIPAGKLERVDPTTVRQEGPWADPAQAVVQTGPNQYTVYVLAFAFGYQPNPIEVPQGAEIVFKITSPDVIHGFHVEGTNINVEVLPGEVSTVRYTFKRPGEYRIICNQYCGLGHQNMFGTIVVKE", "soluble on expression in E. coli": "soluble"}, {"sequence": "MAYVGDDLIDWPVMEKVGLSVAVADAHPLLIPRADYVTRIAGGRGAVREVCDLLLLAQGKLDEAKGQSI", "soluble on expression in E. coli": "not soluble"}]}]}
